Assay results as given in article PMC10506224, “Isolation and characterization of glutathione S-transferase genes and their transcripts in Saccharina japonica (Laminariales, Phaeophyceae) during development and under abiotic stress” (BMC Plant Biology, 2023).

Substrate: O=[N+]([O-])c1ccc(Cl)c([N+](=O)[O-])c1
Test: purified protein
Type: biochemical, Saccharina japonica
Conditions: GSH co-substrate (30 μL of 60 mM in 900 μL)
[1] = 0.1 M potassium phosphate pH 8.0, 20 °C
[2] = 0.1 M potassium phosphate pH 7.0, 20 °C

B1: SjGST22 (Saccharina japonica) (protein)
chain: MAPKLVLTYFDIAGAAEAVRWALEQSGLEWEDKRLTRDEFGALKPSLPNGQVPILEVDGFVLAQSQAILRYVGKLGGLYPSDDLEAAKCDSVLDCATDFGINIRPSFMEKDQAKKMEMREDLAANFIPKWLASMEKQLASTGGIYFGEKMTVADIMIALRVKGLKGGVLDGVPTTIADSYPNLIALHDSIVGEPKIAAFIAKHAK
Work on B1 yielded a Km [1] of 0.674 mM, a kcat [1] of 0.478 s⁻¹ and a kcat/Km [1] of 709 M⁻¹ s⁻¹.

B2: SjGST20 (Saccharina japonica) (protein)
chain: MVPVFNYFGVPARGEATRVALAVAGVEFVDKIIPYAELHASGFRAVPVYQLDGTNYTQSTALLRYAGKLGGTYPEDPLEALKVDEIVMMVEDVFINIFADMKEKDEAKKLATHQALIAGKVKYLIEDIASKLEANTASPFCVGPSLTIADIMVHAMIATFQAGFLVGVPTTTAEDICPSLKGLDDAVMEHPKVKAYYASKA
Protein B2 has a Km [2] of 2.706 mM, a kcat [2] of 9.83 s⁻¹ and a kcat/Km [2] of 3630 M⁻¹ s⁻¹.
